What was measured:
Assay in all cases: MSD specificity profiling, coated protein, Camille at 10 nM
[1] = molecular target: Cell surface receptor 2 (human) (human)
Experimental: (§1) For this specificity profiling test the different proteins and controls were coated on two 384-well MSD plates with a concentration of 1 μg/ml at 4° C. over night. Plates were blocked with BSA and washed three times with PBS with 0.05% (v/v) Tween 20. Antibody samples were diluted to 100 nM and 10 nM in assay buffer (PBS with 0.5% (w/v) BSA, 0.05% (v/v) Tween 20). […] Samples and controls were incubated for three hours at room temperature. The plates were washed three times and 30 μl detection antibody (ECL-labeled anti-human Fab) were added per well and incubated for 1 h. After washing, MSD Read Buffer T with surfactant was added and electrochemiluminescence signals were detected using a Sector Imager 6000 (Meso Scale Discovery, Gaithersburg, Md., USA).

[2] = molecular target: Serum albumin (human) (human, UniProt P02768 25-609)
Experimental: as §1

[3] = molecular target: Aminogylcosidase (Aspergillus niger) (Aspergillus niger)
Chain of Aminogylcosidase (Aspergillus niger) (Aspergillus niger) (P69328 25-640): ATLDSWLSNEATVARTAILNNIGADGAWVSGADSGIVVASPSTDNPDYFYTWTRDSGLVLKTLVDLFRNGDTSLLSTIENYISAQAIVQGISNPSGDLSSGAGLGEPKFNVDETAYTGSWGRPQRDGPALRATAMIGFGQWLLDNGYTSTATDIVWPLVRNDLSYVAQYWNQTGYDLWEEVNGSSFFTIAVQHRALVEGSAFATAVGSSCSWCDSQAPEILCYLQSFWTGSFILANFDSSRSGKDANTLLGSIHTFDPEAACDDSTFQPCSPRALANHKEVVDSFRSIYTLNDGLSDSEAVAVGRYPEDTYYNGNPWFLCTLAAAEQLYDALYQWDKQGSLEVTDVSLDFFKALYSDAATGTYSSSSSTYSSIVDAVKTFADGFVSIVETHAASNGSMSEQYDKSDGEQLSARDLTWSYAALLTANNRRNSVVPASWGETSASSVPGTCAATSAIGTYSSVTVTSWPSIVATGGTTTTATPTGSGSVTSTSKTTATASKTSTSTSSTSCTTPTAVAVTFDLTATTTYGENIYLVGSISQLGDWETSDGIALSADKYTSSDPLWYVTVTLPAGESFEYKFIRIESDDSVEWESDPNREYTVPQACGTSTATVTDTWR
Experimental: as §1

[4] = molecular target: Cytokine 1 (human) (human)
Experimental: as §1

[5] = molecular target: Antitrypsin (human) (human, UniProt P01009 25-418)
Chain of Antitrypsin (human) (P01009 25-418 limits assumed): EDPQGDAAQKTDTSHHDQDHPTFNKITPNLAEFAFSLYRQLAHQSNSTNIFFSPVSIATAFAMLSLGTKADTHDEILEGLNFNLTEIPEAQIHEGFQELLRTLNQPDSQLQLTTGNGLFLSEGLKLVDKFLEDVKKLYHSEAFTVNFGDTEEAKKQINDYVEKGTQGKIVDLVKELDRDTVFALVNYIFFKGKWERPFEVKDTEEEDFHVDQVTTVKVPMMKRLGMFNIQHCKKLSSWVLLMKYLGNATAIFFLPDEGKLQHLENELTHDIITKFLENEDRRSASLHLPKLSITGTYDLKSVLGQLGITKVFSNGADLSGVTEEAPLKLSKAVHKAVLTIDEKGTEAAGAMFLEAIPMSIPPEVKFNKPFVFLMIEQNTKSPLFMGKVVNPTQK
Experimental: as §1

[6] = molecular target: Myoglobin (horse) (horse, UniProt P68082 2-154)
Chain of Myoglobin (horse) (P68082 2-154 limits assumed): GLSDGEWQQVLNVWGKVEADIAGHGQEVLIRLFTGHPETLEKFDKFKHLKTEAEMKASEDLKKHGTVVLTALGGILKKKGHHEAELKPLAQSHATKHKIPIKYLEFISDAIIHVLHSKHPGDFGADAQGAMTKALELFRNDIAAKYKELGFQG
Experimental: as §1

[7] = molecular target: Cytokine 2 (human) (human)
Experimental: as §1

[8] = molecular target: Lysozyme (chicken) (chicken, UniProt P00698 19-147)
Chain of Lysozyme (chicken) (P00698 19-147): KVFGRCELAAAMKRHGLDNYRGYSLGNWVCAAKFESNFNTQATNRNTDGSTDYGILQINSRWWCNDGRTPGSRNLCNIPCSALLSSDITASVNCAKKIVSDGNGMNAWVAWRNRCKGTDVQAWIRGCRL
Experimental: as §1

[9] = molecular target: T1, Fibrinogen (bovine) (bovine, UniProt P02672 20-615; P02676 1-468; P12799 25-444)
T1 sequence (looked up) 1: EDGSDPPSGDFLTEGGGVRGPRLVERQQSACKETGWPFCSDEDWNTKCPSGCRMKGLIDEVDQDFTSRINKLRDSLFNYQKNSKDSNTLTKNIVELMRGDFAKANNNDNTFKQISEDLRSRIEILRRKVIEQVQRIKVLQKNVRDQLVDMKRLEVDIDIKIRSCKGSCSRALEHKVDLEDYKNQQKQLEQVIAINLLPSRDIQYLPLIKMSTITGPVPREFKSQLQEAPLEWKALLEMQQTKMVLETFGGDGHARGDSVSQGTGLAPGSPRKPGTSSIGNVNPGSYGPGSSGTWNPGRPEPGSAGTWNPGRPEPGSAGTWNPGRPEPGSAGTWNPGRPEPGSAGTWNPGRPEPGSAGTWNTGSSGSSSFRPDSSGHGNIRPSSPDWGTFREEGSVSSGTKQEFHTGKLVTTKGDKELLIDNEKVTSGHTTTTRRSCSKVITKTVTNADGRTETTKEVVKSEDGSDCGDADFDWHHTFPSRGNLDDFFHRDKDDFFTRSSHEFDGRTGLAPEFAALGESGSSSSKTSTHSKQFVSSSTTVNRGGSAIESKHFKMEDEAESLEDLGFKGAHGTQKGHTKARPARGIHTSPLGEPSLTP
T1 sequence (looked up) 2: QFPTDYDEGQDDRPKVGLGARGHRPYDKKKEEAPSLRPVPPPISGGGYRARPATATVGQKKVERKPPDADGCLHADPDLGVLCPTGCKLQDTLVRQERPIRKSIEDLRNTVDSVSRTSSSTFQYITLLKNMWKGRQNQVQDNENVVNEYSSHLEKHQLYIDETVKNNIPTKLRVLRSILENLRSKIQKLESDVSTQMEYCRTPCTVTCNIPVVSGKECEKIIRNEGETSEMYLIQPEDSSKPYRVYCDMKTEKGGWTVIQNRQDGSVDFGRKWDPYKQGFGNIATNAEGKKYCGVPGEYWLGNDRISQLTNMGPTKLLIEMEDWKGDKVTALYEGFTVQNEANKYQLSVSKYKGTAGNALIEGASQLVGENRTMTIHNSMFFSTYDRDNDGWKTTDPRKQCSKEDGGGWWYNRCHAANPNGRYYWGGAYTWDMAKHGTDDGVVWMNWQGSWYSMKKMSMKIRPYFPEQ
T1 sequence (looked up) 3: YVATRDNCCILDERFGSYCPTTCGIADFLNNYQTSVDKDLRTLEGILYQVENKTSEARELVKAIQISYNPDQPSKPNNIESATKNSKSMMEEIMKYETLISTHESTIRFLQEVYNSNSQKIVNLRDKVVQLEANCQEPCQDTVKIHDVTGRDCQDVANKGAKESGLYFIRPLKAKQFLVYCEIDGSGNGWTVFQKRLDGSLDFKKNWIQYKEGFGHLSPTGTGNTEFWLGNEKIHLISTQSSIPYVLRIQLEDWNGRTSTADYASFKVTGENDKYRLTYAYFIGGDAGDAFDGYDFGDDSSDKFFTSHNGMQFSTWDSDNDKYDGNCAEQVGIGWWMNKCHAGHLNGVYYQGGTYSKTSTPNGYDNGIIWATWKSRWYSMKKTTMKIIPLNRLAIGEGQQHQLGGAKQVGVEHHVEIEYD
Experimental: as §1

[10] = molecular target: T2, Lectin (Lens culinaris) (Lens culinaris, UniProt P02870 31-210; P02870 218-269, limits assumed)
T2 sequence (looked up) 1: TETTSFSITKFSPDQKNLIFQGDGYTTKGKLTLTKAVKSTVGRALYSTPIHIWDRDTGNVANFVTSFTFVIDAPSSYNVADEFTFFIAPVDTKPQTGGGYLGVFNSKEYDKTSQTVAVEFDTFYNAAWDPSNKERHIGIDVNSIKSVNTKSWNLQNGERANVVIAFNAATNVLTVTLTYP
T2 sequence (looked up) 2: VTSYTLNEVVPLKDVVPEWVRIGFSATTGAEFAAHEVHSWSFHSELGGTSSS
Experimental: as §1

[11] = molecular target: Trypsin inhibitor (Soybean) (Soybean)
Chain of Trypsin inhibitor (Soybean) (Soybean) (P01070 25-205): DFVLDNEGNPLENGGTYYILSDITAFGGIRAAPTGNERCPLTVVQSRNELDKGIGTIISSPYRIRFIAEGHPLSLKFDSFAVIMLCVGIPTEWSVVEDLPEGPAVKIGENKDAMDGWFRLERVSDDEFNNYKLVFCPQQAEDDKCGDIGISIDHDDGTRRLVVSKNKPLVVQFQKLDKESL
Experimental: as §1

B1: Camille (format not stated) (antibody, V domains shown)
VH: QVQLQQSGPGLVKPSQTLSLTCAISGESVSTSSAAWNWIRQSPSRGLEWLGRTYYRSKWKHEYAVSVKSRITINPDTSKNQFSLQLNSVTPEDTAVYYCARDRYYYSAFDYWGQGTLVTVSS
VL: QSALTQPASVSGSPGQSITISCTGTSSDVGGYNSVSWYQQHPGKAPKLLIYAVSNRPSGVSNRFSGSKSGNTASLTISGLQAEDEADYYCASYDERFTRVFGGGTKLTVLG
notes: also called Antibody Camille
signal normalized to reference antibody MOR03207 [1]: 1 ratio
signal normalized to reference antibody MOR03207 [2]: 1 ratio
signal normalized to reference antibody MOR03207 [3]: 1 ratio
signal normalized to reference antibody MOR03207 [4]: 1 ratio
signal normalized to reference antibody MOR03207 [5]: 1 ratio
signal normalized to reference antibody MOR03207 [6]: 1 ratio
signal normalized to reference antibody MOR03207 [7]: 1 ratio
signal normalized to reference antibody MOR03207 [8]: 0 ratio
signal normalized to reference antibody MOR03207 [9]: 1 ratio
signal normalized to reference antibody MOR03207 [10]: 1 ratio
signal normalized to reference antibody MOR03207 [11]: 1 ratio
